Results published in patent publication US20240366624A1 (WASHINGTON UNIVERSITY, published 2024).

T1: recombinant human ERO1α (endoplasmic reticulum oxidoreductase 1α), wild type (human, UniProt Q96HE7 24-468, biotinylated when coupled to the bio-layer interferometry biosensor (site not stated))
T1 construct: also called wtERO1α; biotinylated ERO1α
T1 sequence (looked up): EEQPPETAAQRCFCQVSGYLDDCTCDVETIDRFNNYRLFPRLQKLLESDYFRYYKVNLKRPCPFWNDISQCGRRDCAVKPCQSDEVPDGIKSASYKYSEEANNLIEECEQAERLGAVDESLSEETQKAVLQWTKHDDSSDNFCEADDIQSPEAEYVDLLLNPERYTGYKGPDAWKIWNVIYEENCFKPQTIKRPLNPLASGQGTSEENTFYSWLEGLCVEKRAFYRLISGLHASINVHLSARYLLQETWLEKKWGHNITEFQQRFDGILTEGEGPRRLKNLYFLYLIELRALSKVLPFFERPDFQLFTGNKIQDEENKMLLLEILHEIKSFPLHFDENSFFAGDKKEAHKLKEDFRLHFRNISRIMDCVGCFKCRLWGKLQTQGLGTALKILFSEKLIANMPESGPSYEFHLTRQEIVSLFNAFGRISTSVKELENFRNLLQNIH

B1: human platelet ERO1α (enzyme, UniProt Q96HE7 24-468, looked up)
chain: T1 sequence (looked up)
notes: Endogenous protein in platelet lysates (immunoprecipitation, immunoblot)
B2: wild type STIM1, recombinant (other, UniProt Q13586 23-213, looked up)
chain: LSHSHSEKATGTSSGANSEESTAAEFCRIDKPLCHSEDEKLSFEAVRNIHKLMDDDANGDVDVEESDEFLREDLNYHDPTVKHSTFHGEDKLISVEDLWKAWKSSEVYNWTVDEVVQWLITYVELPQYEETFRKLQLSGHAMPRLAVTNTTMTGTVLKMTDRSHRQKLQLKALDTVLFGPPLLTRHNHLKD
notes: also called wtSTIM1; WT STIM1

How the values were obtained:
[1] = molecular target: T2, human platelet PDI (protein disulfide isomerase) (human, UniProt P07237 18-508); assay: immunoprecipitation of PDI from lysates of resting and thrombin-treated human platelets, immunoblot with anti-ERO1α, densitometry
T2 construct: Immunoprecipitated with biotinylated polyclonal anti-PDI antibodies
T2 sequence (P07237 18-508 limits assumed): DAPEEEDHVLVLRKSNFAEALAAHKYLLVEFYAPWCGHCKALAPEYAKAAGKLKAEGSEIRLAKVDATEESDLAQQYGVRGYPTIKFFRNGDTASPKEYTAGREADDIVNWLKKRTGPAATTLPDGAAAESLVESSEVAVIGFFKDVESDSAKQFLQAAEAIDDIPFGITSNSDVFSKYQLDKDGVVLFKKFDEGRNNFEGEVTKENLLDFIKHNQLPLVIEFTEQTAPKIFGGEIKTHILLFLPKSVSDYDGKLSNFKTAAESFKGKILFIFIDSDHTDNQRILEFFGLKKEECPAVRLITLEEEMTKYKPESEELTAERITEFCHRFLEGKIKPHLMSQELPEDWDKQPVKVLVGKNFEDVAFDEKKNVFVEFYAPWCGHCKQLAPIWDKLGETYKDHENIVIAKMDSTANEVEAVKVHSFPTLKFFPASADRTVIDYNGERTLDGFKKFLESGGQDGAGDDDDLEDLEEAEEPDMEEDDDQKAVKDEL
Procedure: FIG. 1(A-D) is an exemplary embodiment of PDI interacting with ERO1α in platelets in accordance with the present disclosure. Human platelets were treated with or without thrombin for 5 minutes and immunoprecipitated with biotinylated polyclonal anti-PDI antibodies or control IgG. After trypsin digestion, mass spectrometric analysis was conducted. […] FIG. 1B: Examples of the identification of the tryptic peptides […] (SEQ ID NO: 1) and […] (SEQ ID NO: 2) from ERO1α in which the parent ion is observed at 521.77 and 753.37 m/z, respectively, and the parent ion mass error is 4.3 and 3.5 ppm, respectively. FIG. 1C: The peptide sequences of ERO1α that were detected after trypsin digestion. FIG. 1D: After immunoprecipitation with antibodies, the bound fraction was immunoblotted with the indicated antibodies, followed by densitometry (the band density of ERO1a/that of PDI). The data represent the mean±SD (n=3). P value determined by unpaired Student's t-test.

[2] = molecular target: T3, human platelet STIM1 (stromal interaction molecule 1) (human, UniProt Q13586 23-685); assay: co-immunoprecipitation of ERO1α from lysates of resting and thrombin-activated human platelets, mass spectrometry; volcano plot thrombin versus no thrombin
T3 construct: Co-immunoprecipitated with ERO1α

[3] = molecular target: T4, human platelet SERCA2 (sarco/endoplasmic reticulum Ca2+ ATPase 2) (human, UniProt P16615 1-1042, limits assumed); assay: as above
T4 construct: Co-immunoprecipitated with ERO1α
T4 sequence (P16615 whole entry): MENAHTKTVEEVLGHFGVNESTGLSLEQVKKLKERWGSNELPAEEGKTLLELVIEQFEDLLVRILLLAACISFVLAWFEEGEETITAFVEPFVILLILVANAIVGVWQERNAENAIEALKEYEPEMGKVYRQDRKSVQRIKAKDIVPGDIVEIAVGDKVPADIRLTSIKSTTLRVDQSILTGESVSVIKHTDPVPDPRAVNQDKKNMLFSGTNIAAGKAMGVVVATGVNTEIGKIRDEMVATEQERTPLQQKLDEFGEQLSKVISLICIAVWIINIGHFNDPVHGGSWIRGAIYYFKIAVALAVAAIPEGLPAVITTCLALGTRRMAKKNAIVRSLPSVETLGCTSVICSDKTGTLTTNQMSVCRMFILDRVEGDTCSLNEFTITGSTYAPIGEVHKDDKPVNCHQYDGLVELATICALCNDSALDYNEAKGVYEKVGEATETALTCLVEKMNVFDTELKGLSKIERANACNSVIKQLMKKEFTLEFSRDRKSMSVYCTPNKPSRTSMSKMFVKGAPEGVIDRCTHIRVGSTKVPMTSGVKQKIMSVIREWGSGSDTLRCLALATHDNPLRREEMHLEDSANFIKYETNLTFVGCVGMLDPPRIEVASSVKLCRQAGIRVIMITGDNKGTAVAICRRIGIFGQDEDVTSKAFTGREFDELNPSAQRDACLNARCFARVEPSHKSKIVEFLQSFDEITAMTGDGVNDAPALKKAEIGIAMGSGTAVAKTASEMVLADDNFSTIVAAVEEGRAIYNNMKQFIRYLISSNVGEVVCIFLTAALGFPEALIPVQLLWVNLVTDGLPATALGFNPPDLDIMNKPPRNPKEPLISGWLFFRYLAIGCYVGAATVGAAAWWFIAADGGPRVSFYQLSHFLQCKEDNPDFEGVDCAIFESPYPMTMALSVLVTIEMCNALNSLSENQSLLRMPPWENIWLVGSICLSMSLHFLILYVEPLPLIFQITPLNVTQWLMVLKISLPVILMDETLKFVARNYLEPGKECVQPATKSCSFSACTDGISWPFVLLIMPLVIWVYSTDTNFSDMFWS

[4] = molecular target: T1, recombinant human ERO1α (endoplasmic …); assay: bio-layer interferometry, biotinylated ERO1α on the biosensor, STIM1 in solution
Excerpt: PDI is reported to localize in the DTS of platelets. […] It is reported that deletion of platelet STIM1 reduces Ca²⁺ store content in the DTS and SOCE. Thus, ERO1α regulation of STIM1 function was investigated. Bio-layer interferometry was first performed using a biosensor coupled with biotinylated ERO1α and a different concentration of WT or mutant STIM1 in which Cys49 and Cys56 residues were mutated to Ser49 and Ser56 (mutant STIM1 [mSTIM1]-Cys49/56Ser).

Row | Binder | binding result [1] | binding result [2] | binding result [3] | Kd [4] [nM]
1 | B1 | binds | binds | binds | 
2 | B2 |  |  |  | 2600
